How the values were obtained:
[1] = target: Thrombin (UniProt P00734;P00734 328-363;364-622); experiment: strand-displacement fluorescence (Rep-2); 2-500 nM thrombin; LOD 0.96 nM; 5 mM Mg2+; 20 mM Tris-HCl pH 7.5 (22 °C), 100 mM NaCl, 0.1 mM EDTA, 5 mM MgCl2 (20 mM MgCl2 for DNAzyme), room temperature; indirect read-out by strand-displacement fluore
[2] = target: PDGF-BB (human, UniProt P01127 82-190); experiment: strand-displacement fluorescence (Rep-2); 50 nM PDGF; 5 mM Mg2+; 20 mM Tris-HCl pH 7.5 (22 °C), 100 mM NaCl, 0.1 mM EDTA, 5 mM MgCl2 (20 mM MgCl2 for DNAzyme), room temperature; indirect read-out by strand-displacement fluorescence; details: protein: recombinant; chain copies: 2; hairpin, 2-bp stem
PDGF-BB, sequence (P01127 82-190): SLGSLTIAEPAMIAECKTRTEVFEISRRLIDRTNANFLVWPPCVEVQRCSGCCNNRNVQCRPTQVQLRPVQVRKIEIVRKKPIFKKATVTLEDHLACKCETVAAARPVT

B1: Apt-Thr-3bp (= Apt-Thr-OR, Apt-Thr-NOT) (structured_DNA)
DNA: ATGTCAACGTTGTCCGTGGTAGGGCAGGTTGGGGTGACTTGGATAGGTAGGGTACGCT
B1: binds [1].

B2: Apt-PDGF-2bp (structured_DNA)
DNA: ATGTCAACGTTGGCTACGGCACGTAGAGCATCACCATGATCCTTGGATAGGTAGGGTACGCT
B2: binds [2].
